Non-standard residues stand in square brackets, D forms with d. Phe(4-(cis-4-COOH-cHex)) = N[C@@H](Cc1ccc([C@H]2CC[C@@H](C(=O)O)CC2)cc1)C(=O)O; Trp(βS-Me,4-F) = C[C@@H](c1c[nH]c2cccc(F)c12)[C@H](N)C(=O)O; Bip(4'-COOH) = N[C@@H](Cc1ccc(-c2ccc(C(=O)O)cc2)cc1)C(=O)O; dPro(4R-Bzl(4-F)) = O=C(O)[C@H]1C[C@@H](Cc2ccc(F)cc2)CN1; Ala(pyrimidin-5-yl) = N[C@@H](Cc1cncnc1)C(=O)O; Phe(4-COOH) = N[C@@H](Cc1ccc(C(=O)O)cc1)C(=O)O; Ala(4-Pyridazinyl) = N[C@@H](Cc1ccnnc1)C(=O)O; Ala(2-pyrazinyl) = N[C@@H](Cc1cnccn1)C(=O)O; Pro(cis-4-F) = O=C(O)[C@@H]1C[C@H](F)CN1; Ala(4-THP) = N[C@@H](CC1CCOCC1)C(=O)O; 4Pal = N[C@@H](Cc1ccncc1)C(=O)O; Dab = NCC[C@H](N)C(=O)O; Aib = CC(C)(N)C(=O)O
B1: SEQ ID NO: 115 (peptide)
peptide: cyclo([Bip(4'-COOH)][4Pal][Phe(4-COOH)]G[Pro(cis-4-F)][Trp(βS-Me,4-F)][Aib]EW[Aib][Ala(4-Pyridazinyl)]Q[Dab]G[dPro(4R-Bzl(4-F))])
SMILES: C[C@@H](c1c[nH]c2cccc(F)c12)[C@@H]1NC(=O)[C@@H]2C[C@H](F)CN2C(=O)CNC(=O)[C@H](Cc2ccc(C(=O)O)cc2)NC(=O)[C@H](Cc2ccncc2)NC(=O)[C@H](Cc2ccc(-c3ccc(C(=O)O)cc3)cc2)NC(=O)[C@H]2C[C@@H](Cc3ccc(F)cc3)CN2C(=O)CNC(=O)[C@H](CCN)NC(=O)[C@H](CCC(N)=O)NC(=O)[C@H](Cc2ccnnc2)NC(=O)C(C)(C)NC(=O)[C@H](Cc2c[nH]c3ccccc23)NC(=O)[C@H](CCC(=O)O)NC(=O)C(C)(C)NC1=O
B2: SEQ ID NO: 116 (peptide)
peptide: cyclo([Bip(4'-COOH)][Ala(4-Pyridazinyl)][Phe(4-COOH)]G[Pro(cis-4-F)][Trp(βS-Me,4-F)][Aib]EW[Aib][Ala(pyrimidin-5-yl)]Q[Dab]G[dPro(4R-Bzl(4-F))])
SMILES: C[C@@H](c1c[nH]c2cccc(F)c12)[C@@H]1NC(=O)[C@@H]2C[C@H](F)CN2C(=O)CNC(=O)[C@H](Cc2ccc(C(=O)O)cc2)NC(=O)[C@H](Cc2ccnnc2)NC(=O)[C@H](Cc2ccc(-c3ccc(C(=O)O)cc3)cc2)NC(=O)[C@H]2C[C@@H](Cc3ccc(F)cc3)CN2C(=O)CNC(=O)[C@H](CCN)NC(=O)[C@H](CCC(N)=O)NC(=O)[C@H](Cc2cncnc2)NC(=O)C(C)(C)NC(=O)[C@H](Cc2c[nH]c3ccccc23)NC(=O)[C@H](CCC(=O)O)NC(=O)C(C)(C)NC1=O
B3: SEQ ID NO: 117 (peptide)
peptide: cyclo([Phe(4-(cis-4-COOH-cHex))][4Pal][Phe(4-COOH)]G[Pro(cis-4-F)][Trp(βS-Me,4-F)][Aib]EW[Aib][Ala(2-pyrazinyl)]Q[Dab]G[dPro(4R-Bzl(4-F))])
SMILES: C[C@@H](c1c[nH]c2cccc(F)c12)[C@@H]1NC(=O)[C@@H]2C[C@H](F)CN2C(=O)CNC(=O)[C@H](Cc2ccc(C(=O)O)cc2)NC(=O)[C@H](Cc2ccncc2)NC(=O)[C@H](Cc2ccc([C@H]3CC[C@@H](C(=O)O)CC3)cc2)NC(=O)[C@H]2C[C@@H](Cc3ccc(F)cc3)CN2C(=O)CNC(=O)[C@H](CCN)NC(=O)[C@H](CCC(N)=O)NC(=O)[C@H](Cc2cnccn2)NC(=O)C(C)(C)NC(=O)[C@H](Cc2c[nH]c3ccccc23)NC(=O)[C@H](CCC(=O)O)NC(=O)C(C)(C)NC1=O
B4: SEQ ID NO: 118 (peptide)
peptide: cyclo([Bip(4'-COOH)][4Pal][Phe(4-COOH)]G[Pro(cis-4-F)][Trp(βS-Me,4-F)][Aib]EW[Aib][Ala(4-THP)]Q[Dab]G[dPro(4R-Bzl(4-F))])
SMILES: C[C@@H](c1c[nH]c2cccc(F)c12)[C@@H]1NC(=O)[C@@H]2C[C@H](F)CN2C(=O)CNC(=O)[C@H](Cc2ccc(C(=O)O)cc2)NC(=O)[C@H](Cc2ccncc2)NC(=O)[C@H](Cc2ccc(-c3ccc(C(=O)O)cc3)cc2)NC(=O)[C@H]2C[C@@H](Cc3ccc(F)cc3)CN2C(=O)CNC(=O)[C@H](CCN)NC(=O)[C@H](CCC(N)=O)NC(=O)[C@H](CC2CCOCC2)NC(=O)C(C)(C)NC(=O)[C@H](Cc2c[nH]c3ccccc23)NC(=O)[C@H](CCC(=O)O)NC(=O)C(C)(C)NC1=O

target: Recombinant human IL-1β (BioLegend 579404) (human, UniProt P01584 117-269); assay: cell-based or functional assay

Going from B1 to B2, the “MRC5 IC50” value rises from 0.023 nM to 0.04 nM (1.7-fold).

Compared with B3, B4 is 1.7-fold lower in “MRC5 IC50” value: 0.027 nM for the first, 0.016 nM for the second.
